Assay: label from the status in PepcDB records

Row | Sequence | protein production
1 | MRLNQISKFAIVSVVVLVLALLLGGSAKTNLTVEEVNKALEPFFDSLSYILNYYYEADKLDINKLIDHAIDGLVKGTGDDFSYYQDPETYRENQIEMKGEYGGLGIEVTYDAEHGAIKVVAPMYGTPAWRAGLKAGDLIITIDGTPVSKMTYMEAVNNLRGEPGTSVTIEVLRDGEKLTFTIVREKIEIKMVLYSFIETEKGSIGYVRITRFGEKADSDMKNALDKIFEKGVKGLIIDVRDNPGGYLDVALKIVSMFVDKGVILKVRNGFGEEDVYESYGNSYPNVPIVLLVNEGSASASEILTGALKDLGIATVVGRKTFGKGSVQTGFPLSNGGVLFLTTAHYLTPSGKDIHKIGIEPDVLVEESVEEELHAETREQIEVDPEKDPFVKKGLEVLLEKIK | failed
2 | MRLPPRLALSVLAGRGPSCILGSGAATRKDWQERNRRSFSDLYTQPLPDCDFEESSSWTHKSRSEPTRHIACKKSARNLVRDLLEHQNPSHQLILECNPGPGILTGALLKAGARVVAFESEKMFIPHLESLRKNADGELQVVHCDFFKIDPRYQELVRPDVNSHTIFQNLGIKAVPWSAGVPIKVFGILPNKHERRLLWKILFDLYSCESIYRYGRVELNMFISEKEFRVRC | failed
3 | MRLRVDVIPGEHLAYPDVVLVVDVIRATTTAAAFLEAGAEALYWTPSLESALAFKDEDVVLAGETGGLKPPRFDLGNSPREALSAQVAGRVVVMSTTNGTKAAHAAARTAKHVLLASLYNAHAAARLARELATEEVAILCAGKEGRAGLDDLYTAGVLAEYLGFLGEVEPEDGARVALAVKRAYPDPLEALSLSAAALALKQVGLEADVPFCAQVAKSAAVPVLRGRVGEALIFKRA | not failed
4 | MRLTIERRKASLYLRGNLPPKLPGGEWKQQRMPLGLDATPLGVKQAEAKAHQVGLELQMDRFRWQDHVELPIDASVMSGLVHLAEERYFSERDRTAKTLSTWQRVYVAHYRQIGLDKPFSLELIHRYLSSKRGFPNALQKAIVACRFLCAVANQPLDARPWQGVATRREVVPRELPTQQQIVDWFDHLKNMQLHHQPEFRAGWIWVYAAIATYGLRPHEAWYLDLDSLRKSKGKRVWLKDGKTGPRWVYPCPPQWVQRFDLCHGGPPPINVRNNQELGTRAGQWAKANGVPPLYGLRHSYAVRLIEYEFPVTVAAKMMGHSPQVHTETYHRWLGDREVQSYAEDLLR | failed
5 | MRLTKLAATIGCVTLSGLALVACSSDSTAGTDAVAVGGTFQFHSPDGKMEIFYDEADRQQLPDIGGDSLMEEGTQINLSDFENQVVILNAWGQWCAPCRSESDDLQIIHEELQAAGNGDTPGGTVLGINVRDYSRDIAQDFVTDNGLDYPSIYDPPFMTAASLGGVPASVIPTTIVLDKQHRPAAVFLREVTSKDVLDVALPLVDEA | not failed
6 | MRLVSLLPSATEIIAALGLLPFLVGRSHECDYPPEVKALPVCTRARLNAQQSSLAIDRVVQELLRAALGIYDLELATLQALKPTHIITQDQCDVCAVTLPDVQRAIADLLEPPPQLISLQPHCLEDIWEDIRRVGLTLGVAPDPLLTVLKERMRACQRRVSDRPRRQVVAIEWIDPPMASGNWIPELIALAGGENMLGTAGKHSPYIEWSTLLAIDPEVILVMPCGFDLERTRQELDQALQTYPQWQQLRALQTGQLYILDGNAYFNRPGPRLVDSLEILVEILHPCPEPKFHGVGWRPYVGPSMAKMSDEG | failed
7 | MRMIDIIEKKRDGHTLTTEEINFFIGGYVKGDIPDYQASSLAMAIYFQDMNDDERAALTMAMVNSGDMIDLSDIKGVKVDKHSTGGVGDTTTLVLAPLVAAVDVPVAKMSGRGLGHTGGTIDKLEAIDGFHVEIDEATFVKLVNENKVAVVGQSGNLTPADKKLYALRDVTGTVNSIPLIASSIMSKKIAAGADAIVLDVKTGSGAFMKTLEDAEALAHAMVRIGNNVGRNTMAIISDMNQPLGRAIGNALELQEAIDTLKGQGPKDLTELVLTLGSQMVVLANKAETLEEARALLIEAINSGAALEKFKTFIKNQGGDETVIDHPERLPQAQYQIEYKAKKSGYVTELVSNDIGVASMMLGAGRLTKEDDIDLAVGIVLNKKIGDKVEEGESLLTIHSNRQDVDDVVKKLDSSITIADHVVSPTLIHKIITE | not failed
8 | MRMLAHAIKVWNENTGALSHLEIEPLPHQIHLVHHILASGNFNWLIADDVGLGKTIETGMLLHALQQRDLAKRILLITPAGLTKQWQEELYHKFKLEDFEIYGEDFFINEPRQWKMHDCVIGSMDRLKQVDHLESLLQAEPWDLVIFDEGHRLSRRQYGQKLDSSERYDLAKNLRSQTKHMLLLSATPHQGMQDKFVALLELLRPERR | failed
